The values that follow come from patent US20220275043A1.

Test [1] concerns the target single-chain SIINFEKL-H2Kb expressed on K562 cells (mouse). The experiment in a line: flow cytometry, purified OT1-TCR-Igg at 20 nM on K562 cells expressing single-chain SIINFEKL-H2Kb. (A flow cytometer gives signals particle by particle.)
The target is the same in test [2]. The experiment in a line: flow cytometry dot plot (APC-A against Pacific Blue-A) of K562 cells expressing single-chain SIINFEKL-H2Kb, stained with raw supernatant; number printed in the gate 'TCR-Igg pos stain' (same gate in the Negative ctl panel: 1.15).

For the substance “OT1-TCR-Igg (OTI TCRα-LZL-mIgG HC + OTI TCRβ-LZR-mIgG LC, two separate plasmids)”, the percent of cells stained at 20 nM in test [1] was determined as 100%. In test [2], this substance had a TCR-Igg pos stain of 39.3.
